Test results as given in patent US6699683B1, “Active site of human gamma glutamy hydrolase” (Health Research Incorporated, priority 1996, dated 2004).
Marks after values point to notes of the source that are not given here.

B1: Wildtype: mature human gamma glutamyl hydrolase (SEQ ID NO:1) with N-terminal methionine, expressed in E. coli (protein, listed as Homo sapiens)
chain: RPHGDTAKKPIIGILMQKCRNKVMKNYGRYYIAASYVKYLESAGARVVPVRLDLTEKDYEILFKSINGILFPGGSVDLRRSDYAKVAKIFYNLSIQSFDDGDYFPVWGTCLGFEELSLLISGECLLTATDTVDVAMPLNFTGGQLHSRMFQNFPTELLLSLAVEPLTANFHKWSLSVKNFTMNEKLKKFFNVLTTNTDGKIEFISTMEGYKYPVYGVQWHPEKAPYEWKNLDGISHAPNAVNPAFYLAEFFVNEARKKNHHFKSESEEEKALIYQFSPIYTGNISSFQQCYIFD
modifications: N-terminal methionine
B2: His171Asn: hGH mutant with His 171 changed to Asn, expressed in the baculovirus system (protein)
chain: RPHGDTAKKPIIGILMQKCRNKVMKNYGRYYIAASYVKYLESAGARVVPVRLDLTEKDYEILFKSINGILFPGGSVDLRRSDYAKVAKIFYNLSIQSFDDGDYFPVWGTCLGFEELSLLISGECLLTATDTVDVAMPLNFTGGQLHSRMFQNFPTELLLSLAVEPLTANFNKWSLSVKNFTMNEKLKKFFNVLTTNTDGKIEFISTMEGYKYPVYGVQWHPEKAPYEWKNLDGISHAPNAVNPAFYLAEFFVNEARKKNHHFKSESEEEKALIYQFSPIYTGNISSFQQCYIFD
B3: C19A: hGH variant with cysteine 19 replaced by alanine (protein)
chain: RPHGDTAKKPIIGILMQKARNKVMKNYGRYYIAASYVKYLESAGARVVPVRLDLTEKDYEILFKSINGILFPGGSVDLRRSDYAKVAKIFYNLSIQSFDDGDYFPVWGTCLGFEELSLLISGECLLTATDTVDVAMPLNFTGGQLHSRMFQNFPTELLLSLAVEPLTANFHKWSLSVKNFTMNEKLKKFFNVLTTNTDGKIEFISTMEGYKYPVYGVQWHPEKAPYEWKNLDGISHAPNAVNPAFYLAEFFVNEARKKNHHFKSESEEEKALIYQFSPIYTGNISSFQQCYIFD
B4: C124A: hGH variant with cysteine 124 replaced by alanine (protein)
chain: RPHGDTAKKPIIGILMQKCRNKVMKNYGRYYIAASYVKYLESAGARVVPVRLDLTEKDYEILFKSINGILFPGGSVDLRRSDYAKVAKIFYNLSIQSFDDGDYFPVWGTCLGFEELSLLISGEALLTATDTVDVAMPLNFTGGQLHSRMFQNFPTELLLSLAVEPLTANFHKWSLSVKNFTMNEKLKKFFNVLTTNTDGKIEFISTMEGYKYPVYGVQWHPEKAPYEWKNLDGISHAPNAVNPAFYLAEFFVNEARKKNHHFKSESEEEKALIYQFSPIYTGNISSFQQCYIFD
B5: H220A: hGH mutant with His 220 changed to Ala, expressed in the baculovirus system (protein)
chain: RPHGDTAKKPIIGILMQKCRNKVMKNYGRYYIAASYVKYLESAGARVVPVRLDLTEKDYEILFKSINGILFPGGSVDLRRSDYAKVAKIFYNLSIQSFDDGDYFPVWGTCLGFEELSLLISGECLLTATDTVDVAMPLNFTGGQLHSRMFQNFPTELLLSLAVEPLTANFHKWSLSVKNFTMNEKLKKFFNVLTTNTDGKIEFISTMEGYKYPVYGVQWAPEKAPYEWKNLDGISHAPNAVNPAFYLAEFFVNEARKKNHHFKSESEEEKALIYQFSPIYTGNISSFQQCYIFD
B6: Glu222Ala: hGH mutant with Glu 222 changed to Ala, expressed in the baculovirus system (protein)
chain: RPHGDTAKKPIIGILMQKCRNKVMKNYGRYYIAASYVKYLESAGARVVPVRLDLTEKDYEILFKSINGILFPGGSVDLRRSDYAKVAKIFYNLSIQSFDDGDYFPVWGTCLGFEELSLLISGECLLTATDTVDVAMPLNFTGGQLHSRMFQNFPTELLLSLAVEPLTANFHKWSLSVKNFTMNEKLKKFFNVLTTNTDGKIEFISTMEGYKYPVYGVQWHPAKAPYEWKNLDGISHAPNAVNPAFYLAEFFVNEARKKNHHFKSESEEEKALIYQFSPIYTGNISSFQQCYIFD
B7: C290A: hGH variant with cysteine 290 replaced by alanine (protein)
chain: RPHGDTAKKPIIGILMQKCRNKVMKNYGRYYIAASYVKYLESAGARVVPVRLDLTEKDYEILFKSINGILFPGGSVDLRRSDYAKVAKIFYNLSIQSFDDGDYFPVWGTCLGFEELSLLISGECLLTATDTVDVAMPLNFTGGQLHSRMFQNFPTELLLSLAVEPLTANFHKWSLSVKNFTMNEKLKKFFNVLTTNTDGKIEFISTMEGYKYPVYGVQWHPEKAPYEWKNLDGISHAPNAVNPAFYLAEFFVNEARKKNHHFKSESEEEKALIYQFSPIYTGNISSFQQAYIFD

Experiments:
[1] = tested on: wildtype, C19A, C124A and C290A hGH proteins; conditions: 0.5 mM iodoacetate for 60 minutes
Description: hGH activity in chromatography fractions was measured with 4-NH2-10-CH3PteGlu5 (Schirk Labs, Jona, Switzerland) as previously described (Rhee et al. 1998). The specific activities and reaction kinetics of hGH were determined using varying concentrations of 4-NH2-10-CH3PteGlu2 as substrate (Schirk Labs). Km and Vmax were determined by the method of Hanes (Price and Stevens 1989) with the best fit line calculated using Excel (Microsoft).

[2] = tested on: human gamma glutamyl hydrolase (hGH); assay: hGH activity assay with 4-NH2-10-CH3PteGlu2 as substrate (Km, Vmax, specific activity) of E. coli-expressed purified proteins; assay type: biochemical; conditions: for Specific activity (nmol 4-NH2-10-CH3PteGlu2 hydrolyzed/min/mg protein): 200 μM 4-NH2-10-CH3PteGlu2 for 5 minutes; for Specific activity (nmol 4-NH2-10-CH3PteGlu2 hydrolyzed/min/mg protein) / Km / Vmax (nmol 4-NH2-10-CH3PteGlu2 hydrolyzed/min/μg protein): mean ± SD of 3 experiments; for hGH activity (in words): purified E. coli-expressed proteins; for Km: substrate 4-NH2-10-CH3PteGlu2, variable concentrations; for Vmax (nmol 4-NH2-10-CH3PteGlu2 hydrolyzed/min/μg protein): variable 4-NH2-10-CH3PteGlu2 concentrations
Description: Mutant plasmids were used to transform E. colistrain BL21(DE3)pLysS to kanamycin resistance. Cultures (20 ml) were grown for 16 hours at 37° C., 225 rpm in tryptone-phosphate broth (Moore et al. 1993), containing 30 μg/ml kanamycin and 34 μg/ml chloramphenicol. An aliquot (6 ml) of this culture was used to inoculate 500 ml of the same medium. Cultures were incubated at 27° C., 225 rpm until the OD600nm was 0.5-0.6. Isopropyl β-D-thiogalactoside (IPTG) was added to a final concentration of 1 mM and cultures were incubated for a further 3 hours. Cells were harvested by centrifugation and stored at −80° C. Cells from 1 liter of broth were resuspended in 50 ml of 50 mM Tris/HCl pH 7.5 buffer containing 500 mM NaCl and Complete protease inhibitor cocktail (Boehringer Mannheim, Indianapolis, Ind.). The mixture was sonicated and clarified by centrifugation at 20,000 g for 30 minutes at 4° C. A 20-60% ammonium sulfate precipitate was resuspended in 50 mM sodium acetate, pH 5.8, 1 mM octyl-β-D-glucoside (OBG) and 5% glycerol (buffer A). After dialysis at 4° C. against buffer A and clarification by centrifugation at 30,000 g, 4° C. for 120 minutes, the dialysate was applied in two aliquots to a Protein Pak SP colummn (1.0 cm×10 cm, Waters Division of Millipore Corp., Milford, Mass.) equilibrated in buffer A. The protein was eluted (1 ml/min) with a linear gradient in buffer A of 0 to 1M NaCl over 60 minutes. Fractions were assayed for hGH activity or for hGH protein by Western blot. Fractions containing hGH were pooled and frozen at −80° C. Wildtype hGH and the C19A, C110A, and C290A mutants eluted as two peaks whereas the C124A mutant eluted as a single peak coincident with the first peak for the other hGH proteins. […] There was 8-10 times more hGH protein in peak 1 than in peak 2. A statistically significant amount (40-82%) of enzyme activity of proteins purified on the SP column was lost when stored either at 4° C. or at −80° C. Thawed aliquots of peak 1 were incubated for 2 hours at 4° C. with 2 ml of pHMB agarose (0.8 μmole/ml agarose) (Sigma Chemical, St. Louis, Mo.) equilibrated in 50 mM sodium acetate pH 5.8, 20 mM OBG, 500 mM NaCl (buffer B). The matrix was poured into a column (0.75 cm×4.5 cm) and washed with buffer B. hGH protein was eluted with buffer B containing additionally 10 mM dithiothreitol and 50 mM β-mercaptoethanol. EDTA (1 mM final) was added to each fraction to inhibit remaining proteases. Fractions containing hGH were pooled and stored at −80° C.
Km and Vmax activities were measured using variable 4-NH2-10-CH3PteGlu2 substrate concentrations. Specific activities were measured using 200 μM 4-NH2-10-CH3PteGlu2 for 5 minutes.

[3] = tested on: human gamma glutamyl hydrolase (hGH); assay: Activity of baculovirus-expressed hGH mutants on methotrexate polyglutamates; assay type: biochemical; conditions: mutants expressed in the baculovirus system
Excerpt: This model for the active site of hGH has been tested by preparing the Cys110Ala, His220Ala, Glu222Ala, His171Ala, and His171Asn mutants of hGH. The mutants were expressed in the baculovirus system used for active hGH to facilitate the rapid expression and purification of the proteins. The mutant proteins were characterized for activity on methotrexate polyglutamates. […] The role of His171 in hGH has been examined by preparing the mutant His171Ala and the more conservative mutation His171Asn.

Molecule | Reduction of hGH activity by iodoacetate [1] | Specific activity (nmol 4-NH2-10-CH3PteGlu2 hydrolyzed/min/mg protein) [2] | hGH activity (in words) [2] | Km [2] [µM] | Vmax (nmol 4-NH2-10-CH3PteGlu2 hydrolyzed/min/μg protein) [2] | Activity on methotrexate tetraglutamate [3] | Activity on methotrexate polyglutamates [3]
O=C(O)CI [iodoacetate] | 70-94% |  |  |  |  |  | 
B1 |  | 1913 ± 32 nmol 4-NH2-10-CH3PteGlu2 hydrolyzed/min/mg protein | had activity | 55.2 ± 8.4 | 2.7 ± 0.9 nmol 4-NH2-10-CH3PteGlu2 hydro |  | 
B2 |  |  |  |  |  | inactive | 
B3 |  | 1000 ± 72^a nmol 4-NH2-10-CH3PteGlu2 hydrolyzed/min/mg protein | had activity | 18.1 ± 0.4 | 1.1 ± 0.3 nmol 4-NH2-10-CH3PteGlu2 hydro |  | 
B4 |  | 725 ± 79^a nmol 4-NH2-10-CH3PteGlu2 hydrolyzed/min/mg protein | had activity | 28.5 ± 3.7 | 1.0 ± 0.1 nmol 4-NH2-10-CH3PteGlu2 hydro |  | 
B5 |  |  |  |  |  |  | inactive
B6 |  |  |  |  |  |  | greatly reduced activity
B7 |  | 1406 ± 463 nmol 4-NH2-10-CH3PteGlu2 hydrolyzed/min/mg protein | had activity | 19.5 ± 8.6 | 1.9 ± 0.4 nmol 4-NH2-10-CH3PteGlu2 hydro |  | 
